Experimental data taken from article PMC3722453, “N-truncated amyloid β (Aβ) 4-42 forms stable aggregates and induces acute and long-lasting behavioral deficits” (Acta Neuropathologica, 2013).

Experiments:
[1] = SDS-PAGE Western blot of Aβ peptides (stable aggregates); type: physicochemical; conditions: 1 μg peptide, reducing conditions, antiserum 24311; for higher molecular weight oligomers on SDS-PAGE after aging: after 1 and 3 days of aging
Procedure: Lyophilized Aβ peptides were dissolved in 10-mM NaOH at a concentration of 1 mg/mL, aliquoted in 50 μL volumes, flash-frozen in liquid nitrogen and stored at −80 °C until use. For Western blot analysis under reducing conditions, 1 μg peptides were loaded on 4–12 % VarioGels (Anamed), transferred to 0.45 μm nitrocellulose membranes and detected using the primary antiserum 24311 (pan-Aβ, 1:500) or monoclonal antibody 4G8 (Aβ17-24, Signet; 1:500). For Western blotting of mouse brain, whole brain SDS lysates were used. Running and transfer buffers were applied according to the manufacturer. The blots were developed using enhanced chemiluminescence according to the manufacturer (Roth). Horse radish conjugated swine anti-rabbit antibody was used as a secondary antibody (1:3,000, Dianova).

[2] = Far-UV circular dichroism (CD) spectroscopy; type: physicochemical; conditions: 0.2 mg/mL, phosphate buffer 20 mM pH 7.2, 20 °C, monomeric state
Procedure: Samples of 0.2 mg/mL peptide concentration in phosphate buffer (20 mM, pH 7.2) were prepared. The far-UV CD measurements were conducted on a Chirascan CD spectrometer, with a 1-mm path length quartz cell, 1-nm bandwidth and 8-s collection time for each point at 0.5 nm steps between 190 and 260 nm. The buffer spectrum was also measured and subtracted from the spectra of Aβ peptides. The temperature-dependence of secondary structure was studied through far-UV measurements at three different temperatures, 20, 30 and 40 °C. The reversibility of temperature-induced changes was checked with an additional CD spectrum measured after cooling down from 40 to 20 °C. The CD spectrum of the cooled sample was taken after 5 min of equilibration at 20 °C. The 0.2 mg/mL Aβ samples in phosphate buffer (20 mM, pH 7.2) containing 25 mM NaCl were incubated at 37 °C for 3 days with gentle stirring.

C57BL/6 J wildtype mice = assay: Y-maze working memory after intracerebroventricular injection of soluble Aβ; type: in vivo, mouse; conditions: 50 pmol in 1 μL icv, male C57BL/6 J mice 12-week old, n = 6 per group, Y-maze on day 4, 5-min session
Procedure: Male C57BL/6 J mice (12-week old, Janvier, Le Genest-St-Isle, France; n = 6 per treatment group) were housed five to six per cage with free access to food and water, and were kept in a constant environment (22 ± 2 °C, 50 ± 5 % humidity, 12-h light cycle). Under anesthetization, freshly prepared Aβ peptides (50 pmol in 1 μL; 0.1 M phosphate-buffered saline (pH 7.4)) or vehicle (0.1 M phosphate-buffered saline) were injected into the right ventricle, with stereotaxic coordinates from the bregma (AP −0.22, L −1.0 and D 2.5 in mm). Intracerebroventricular (icv) injections were made using a 10-μl Hamilton microsyringe fitted with a 26-gauge needle. Four days following icv infusion of Aβ peptides, working memory was assessed using the Y-maze test.
Immediate spatial working memory performance in male C57BL/6 J wildtype mice (12-week old, Janvier, Le Genest-St-Isle, France; n = 6 per treatment group) was assessed by recording spontaneous alternation behavior in a Y-maze as described previously. The Y-maze task was carried out on day 4 after soluble Aβ application. The maze was made of opaque plexiglas and each arm was 40-cm long, 16-cm high, 9-cm wide and positioned at equal angles. Mice were placed at the end of one arm and allowed to move freely through the maze during a 5-min session. The series of arm entries were recorded visually and arm entry was considered to be completed when the hind paws of the mouse were completely placed in the arm. Alternation was defined as successive entries into the three arms on overlapping triplet sets. The percentage alternation was calculated as the ratio of actual (total alternations) to possible alternations (defined as the number of arm entries minus two), multiplied by 100.

[3] = Dynamic light scattering (DLS) of peptide supernatants; type: physicochemical; conditions: DLS at 20 °C, 0.2 mg/mL, phosphate buffer 20 mM pH 7.4, 25 mM NaCl; after 24 h at 37 °C without agitation; supernatant after 16,000g 15 min
Procedure: DLS experiments were performed at 20 °C on a DynaPro Titan (Wyatt Technology Corp., CA) instrument with a scattering angle of 90°. The samples were centrifuged at 16,000g for 15 min, and then the supernatant was taken for DLS measurements. The “monomeric” samples were prepared freshly in phosphate buffer (20 mM, pH 7.4) containing 25 mM NaCl at a peptide concentration of 0.2 mg/mL. The aggregated samples were prepared after incubation at 37 °C for 24 h, without further promotion of aggregation by agitation. The size distribution was determined by a constrained regularization method. The reported scattering intensities are from three separate measurements of the same sample.

primary cortical neurons = assay: Calcein-AM cell viability assay; type: cell-based, Wistar rat; conditions: for effect on cell viability: 24 h incubation with freshly prepared peptide at different concentrations, calcein-AM fluorescence; for toxicity profile compared to vehicle control: ANOVA with Bonferroni multiple comparisons
Procedure: Cortical neurons from embryonic day 16–17 Wistar rat fetuses were prepared as previously described. In brief, dissociated cortical cells were plated at 50,000 cells/well in 48-well plates precoated with 1.5 mg/mL polyornithine (Sigma). Cells were cultured in a chemically defined Dulbecco’s Modified Eagle’s/F12 medium free of serum (Gibco) and supplemented with hormones, proteins and salts. […] At 6 DIV, the medium was removed and cortical neurons were incubated for 24 h with vehicle (cell culture medium) or Aβ peptides (dissolved in cell culture medium) at the indicated concentrations.
Following a 24-h incubation of primary cortical neurons with Aβ peptides, cell viability was determined using a calcein-AM assay (Invitrogen, Molecular Probes). Briefly, cells were washed twice with PBS and incubated to protect from light for 30 min at room temperature in the presence of 2 μM calcein-AM solution prepared in PBS. Cells were then washed twice with PBS and incubated for 15 min at room temperature in PBS containing 1 % Triton X-100 (v/v). The level of calcein fluorescence was monitored by fluorescence emission at 530 nm after exciting at 485 nm, using a Fluostar microplate reader (BMG-Labtechnologies, France).

[4] = 1D 1H NMR monomer consumption assay; type: physicochemical; conditions: 40 μM peptide, phosphate buffer 20 mM pH 7.2, 25 mM NaCl; after 14 h of incubation at 37 °C; methyl and aromatic 1H signals normalised to DSS
Procedure: 1D ^1H NMR spectra of the five different Aβ peptides were measured at 5 °C at 400 MHz ^1H Larmor frequency. The samples contained 40-μM peptide in phosphate buffer (20 mM, pH 7.2) with 25-mM NaCl. The aggregation propensity of the Aβ variants were then studied through real-time 1D ^1H NMR experiments at 37 °C continued for 14 h at 1-h intervals. The integrated intensity of ^1H peaks at two regions (0.50–1.05 ppm, 6.50–8.00 ppm), after chemical shift using DSS ([…]) as a reference standard, was then calculated. After normalization by the integrated intensity of the DSS peak at 0 ppm, the relative intensity of the peptide ^1H peaks was used to probe peptide monomer consumption during the early phases of peptide aggregation.

[5] = Transmission electron microscopy (TEM) of aggregates; type: physicochemical; conditions: 0.1 mg/mL, HEPES 25 mM pH 7.4, 50 mM NaCl, 3 days at 37 °C with gentle stirring
Procedure: Peptide samples of 0.1 mg/mL concentration in HEPES buffer (25 mM, pH 7.4, 50 mM NaCl) were incubated at 37 °C with gentle stirring. After 3 days of incubation, samples were diluted, deposited onto carbon-coated copper mesh grids and negatively stained with 2 % (w/v) uranyl acetate. The excess stain was washed away, and the sample grids were allowed to air-dry. The samples were then viewed with a 120-kV transmission electron microscope.

Substance: Aβ1-42: full-length amyloid β 1-42, purchased from PSL [reference compound]
- higher molecular weight oligomers on SDS-PAGE after aging [1]: higher molecular weight oligomers in addition
- species on SDS-PAGE, freshly dissolved peptides [1]: monomers and aggregates most likely representing trimer/tetramers
- secondary structure by far-UV CD spectrum [2]: unstructured in the monomeric state
- working memory (Y-maze alternation rate) (C57BL/6 J wildtype mice): performed at chance level and showed a significant and robust deficit in working memory
- hydrodynamic radius of small (main) aggregates [3]: 5–10 nm
- effect on cell viability (primary cortical neurons): dose-dependent reduction in cell viability
- toxicity compared with Aβ4-40 at 5 μM (primary cortical neurons; 24 h incubation, 5 μM, calcein-AM): more potent than Aβ4-40
- toxicity profile compared to vehicle control (primary cortical neurons; 24 h incubation, calcein-AM): strongest toxic effect
- loss of initial 1H NMR signal intensity (monomer consumption) [4]: around 5%

Substance: Aβ4-38: amyloid β (Aβ) variant, N-truncated, purchased from PSL
- higher molecular weight oligomers on SDS-PAGE after aging [1]: not
- species on SDS-PAGE, freshly dissolved peptides [1]: monomers, dimers but no other oligomers
- secondary structure by far-UV CD spectrum [2]: unstructured in the monomeric state
- working memory (Y-maze alternation rate) (C57BL/6 J wildtype mice): behaved like vehicle controls and learned well
- aggregate morphology by TEM [5]: clumps of fibrillar aggregates
- effect on cell viability (primary cortical neurons): dose-dependent reduction in cell viability
- toxicity profile compared to vehicle control (primary cortical neurons; 24 h incubation, calcein-AM): only toxic at 10 μM
- loss of initial 1H NMR signal intensity (monomer consumption) [4]: rose slightly in intensity

Substance: Aβ4-40: amyloid β (Aβ) variant, N-truncated, purchased from PSL
- higher molecular weight oligomers on SDS-PAGE after aging [1]: not
- species on SDS-PAGE, freshly dissolved peptides [1]: monomers, dimers but no other oligomers
- secondary structure by far-UV CD spectrum [2]: unstructured in the monomeric state
- working memory (Y-maze alternation rate) (C57BL/6 J wildtype mice): significantly reduced
- aggregate morphology by TEM [5]: clumps of fibrillar aggregates
- effect on cell viability (primary cortical neurons): dose-dependent reduction in cell viability
- loss of initial 1H NMR signal intensity (monomer consumption) [4]: around 5%
